# From article PMC3115387 (Proteins, 2011)
# Molecular target: the molecule itself
# Assay: native gel or EMSA
protein,measurement,value
"Mitomycin-7-O-methyltransferase (MmcR), recombinant N-His6-MmcR (enzyme, Streptomyces lavendulae, selenomethionine (SeMet-labeled protein used for the crystals)) MTVEQTPENPGTAARAAAEETVNDILQGAWKARAIHVAVELGVPELLQEGPRTATALAEATGAHEQTLRRLLRLLATVGVFDDLGHDDLFAQNALSAVLLPDPASPVATDARFQAAPWHWRAWEQLTHSVRTGEASFDVANGTSFWQLTHEDPKARELFNRAMGSVSLTEAGQVAAAYDFSGAATAVDIGGGRGSLMAAVLDAFPGLRGTLLERPPVAEEARELLTGRGLADRCEILPGDFFETIPDGADVYLIKHVLHDWDDDDVVRILRRIATAMKPDSRLLVIDNLIDERPAASTLFVDLLLLVLVGGAERSESEFAALLEKSGLRVERSLPCGAGPVRIVEIRRA",stoichiometry N,2
